Here are results for 1 molecule from US20110223127A1 (NOXXON PHARMA, published 2011).

This test addresses T1, human [^125J]-SDF-1α (human, UniProt P48061 22-89, 125J (iodine-125) label, position not stated).
T1 construct: Bought from PerkinElmer; also called radiolabelled human SDF-1; CXCL12
As to the kind of experiment: radioligand binding of human [125J]-SDF-1 to CHO cells expressing human CXCR4, scintillation counting (total binding, cpm); the blocker varied is the nucleic acid Spiegelmer 192-A10-001, preincubated with the ligand. How it is done:
For binding assays CXCR4-expressing cells were seeded into polylysine-coated 24-well plates at a cell density of 1×10⁵ cells/well and cultivated overnight at 37° C. and 5% CO₂ in CHO-Ultra medium (Cambrex, Verviers, Belgium) containing 50 units/ml penicillin, 50 μg/ml streptomycin and 0.5 mg/ml geneticin.
For the binding experiment, the medium was removed and the cells were washed once with Hanks balanced salt solution, additionally containing 20 mM HEPES, 1 mg/ml bovine serum albumin, 0.1 mg/ml bacitracin (HBB). Then the cells were incubated in 0.2 ml HBB for 1 h at room temperature together with […] [¹²⁵J]-SDF-1 (PerkinElmer, Rodgau, Germany) and varying concentrations of Spiegelmer.
Non-specific binding was determined by adding unlabeled human SDF-1 (R & D Systems, Wiesbaden, Germany) to a final concentration of 0.5 μM to several wells.

T1 sequence (P48061 22-89): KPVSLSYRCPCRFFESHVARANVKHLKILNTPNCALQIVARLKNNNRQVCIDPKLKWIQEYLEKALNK

B1: human CXCR4-receptor (receptor, UniProt P61073 1-352, looked up)
chain: MEGISIYTSDNYTEEMGSGDYDSMKEPCFREENANFNKIFLPTIYSIIFLTGIVGNGLVILVMGYQKKLRSMTDKYRLHLSVADLLFVITLPFWAVDAVANWYFGNFLCKAVHVIYTVNLYSSVLILAFISLDRYLAIVHATNSQRPRKLLAEKVVYVGVWIPALLLTIPDFIFANVSEADDRYICDRFYPNDLWVVVFQFQHIMVGLILPGIVILSCYCIIISKLSHSKGHQKRKALKTTVILILAFFACWLPYYIGISIDSFILLEIIKQGCEFENTVHKWISITEALAFFHCCLNPILYAFLGAKFKTSAQHALTSVSRGSSLKILSKGKRGGHSSVSTESESSSFHSS
notes: whole, on cells; also called SDF-1 receptor
In the case of B1, the binding result is recorded as “binds”.
